Patent US20260151494A1 (ARO BIOTHERAPEUTICS, published 2026)
Changes are numbered by the printed parent chain.

B1: CD71-binding FN3 domain of SEQ ID NO: 225 (designed binder)
chain: MSLPAPKNLVVSRVTEDSARLSWTAPDAAFDSFEIGYFENLYLGEAIVLTVPGSERSYDLTGLKPGTEYWVQIGGVKGGNWSAPLSAIFTT
B2: CD71-binding FN3 domain of SEQ ID NO: 228 (designed binder)
chain: B1 chain with F38W, L41A, L43K, W70V, Q72F, N80V, A83K, A87V
B3: CD71-binding FN3 domain of SEQ ID NO: 226 (designed binder)
chain: B1 chain with V11I, Q72A, N80L, A83L
B4: CD71-binding FN3 domain of SEQ ID NO: 233 (designed binder)
chain: B1 chain with E34F, F38L, N40P, L41Q, Y42P, L43P, V48H, T50S
B5: CD71-binding FN3 domain of SEQ ID NO: 220 (designed binder)
chain: B1 chain with G36A, F38W, N40Q, L41S, L43T
B6: CD71-binding FN3 domain of SEQ ID NO: 223 (designed binder)
chain: B1 chain with G36A, N40R, L41T, Y42W, L43F, Q72A, N80L, A83L, A87V
B7: CD71-binding FN3 domain of SEQ ID NO: 232 (designed binder)
chain: MSLPAPKNLVVSRVTEDSARLSWTAPDAAFDSFEISYWEHTFNGEAIILFVPGSERSYDLTGLKPGTEYVVFIGGVKGGVWSVPLSAIFTT
B8: CD71-binding FN3 domain of SEQ ID NO: 224 (designed binder)
chain: B1 chain with F38W, L41A, L43K, W70V, Q72F, N80G, A83G
B9: CD71-binding FN3 domain of SEQ ID NO: 230 (designed binder)
chain: B1 chain with V10I, F33L
B10: CD71-binding FN3 domain of SEQ ID NO: 219 (designed binder)
chain: MSLPAPKNLVVSRVTEDSARLSWTAPDAAFDSFAIMYGERGNPGEAIVLTVPGSERSYDLTGLKPGTEYAVWIYGVKGGNYSYPLSAIFTT
notes: the tag is not included in the chain
B11: CD71-binding FN3 domain of SEQ ID NO: 234 conjugated to KRAS2 siRNA (designed binder)
chain: MSLPAPKNLVVSRVTEDSARLSWTAPDAAFDSFFIGYLEPQPPGEAIALYVPGSERSYDLTGLKPGTEYNVTIQGVKGGFPSEPLVAHFTT
modifications: conjugated to KRAS2 tool siRNA; site and linker not stated
B12: CD71-binding FN3 domain of SEQ ID NO: 264 conjugated to KRAS2 siRNA (designed binder)
chain: B11 chain with A87V
modifications: conjugated to KRAS2 tool siRNA; site and linker not stated
B13: CD71-binding FN3 domain of SEQ ID NO: 974 conjugated to KRAS2 siRNA (designed binder)
chain: B11 chain with E83L, H88T
modifications: conjugated to KRAS2 tool siRNA; site and linker not stated
B14: CD71-binding FN3 domain of SEQ ID NO: 331 conjugated to KRAS2 siRNA (designed binder)
chain: B11 chain with A48H, G78V, V86I, H88N
modifications: conjugated to KRAS2 tool siRNA; site and linker not stated
B15: CD71-binding FN3 domain of SEQ ID NO: 295 conjugated to KRAS2 siRNA (designed binder)
chain: B11 chain with A48D, H88T
modifications: conjugated to KRAS2 tool siRNA; site and linker not stated
B16: CD71-binding FN3 domain of SEQ ID NO: 270 conjugated to KRAS2 siRNA (designed binder)
chain: B11 chain with A48H, V86I, H88N, F89S
modifications: conjugated to KRAS2 tool siRNA; site and linker not stated
B17: CD71-binding FN3 domain of SEQ ID NO: 343 conjugated to KRAS2 siRNA (designed binder)
chain: B11 chain with Y50W, H88T
modifications: conjugated to KRAS2 tool siRNA; site and linker not stated
B18: CD71-binding FN3 domain of SEQ ID NO: 333 conjugated to KRAS2 siRNA (designed binder)
chain: B11 chain with K7E, E83L, H88T
modifications: conjugated to KRAS2 tool siRNA; site and linker not stated
B19: CD71-binding FN3 domain of SEQ ID NO: 222 (designed binder)
chain: B11 chain with A48T, E83G, V86I, H88S
B20: CD71-binding FN3 domain of SEQ ID NO: 290 conjugated to KRAS2 siRNA (designed binder)
chain: B11 chain with A48H, H88T
modifications: conjugated to KRAS2 tool siRNA; site and linker not stated
B21: CD71-binding FN3 domain of SEQ ID NO: 335 conjugated to KRAS2 siRNA (designed binder)
chain: B11 chain with A48D, E83L, H88T
modifications: conjugated to KRAS2 tool siRNA; site and linker not stated
B22: CD71-binding FN3 domain of SEQ ID NO: 341 conjugated to KRAS2 siRNA (designed binder)
chain: B11 chain with A48E, E83L, H88I
modifications: conjugated to KRAS2 tool siRNA; site and linker not stated
B23: CD71-binding FN3 domain of SEQ ID NO: 972 conjugated to KRAS2 siRNA (designed binder)
chain: B11 chain with V76A, A87V
modifications: conjugated to KRAS2 tool siRNA; site and linker not stated
B24: CD71-binding FN3 domain of SEQ ID NO: 293 conjugated to KRAS2 siRNA (designed binder)
chain: B11 chain with A48D, E83H, H88T
modifications: conjugated to KRAS2 tool siRNA; site and linker not stated
B25: CD71-binding FN3 domain of SEQ ID NO: 973 conjugated to KRAS2 siRNA (designed binder)
chain: B11 chain with A48H, V71G, G78V, V86I, H88N
modifications: conjugated to KRAS2 tool siRNA; site and linker not stated
B26: CD71-binding FN3 domain of SEQ ID NO: 281 conjugated to KRAS2 siRNA (designed binder)
chain: B11 chain with V86I, H88N
modifications: conjugated to KRAS2 tool siRNA; site and linker not stated
B27: CD71-binding FN3 domain of SEQ ID NO: 221 (designed binder)
chain: B11 chain with Q41R, A48H, V71I, E83I, V86I, H88S
B28: CD71-binding FN3 domain of SEQ ID NO: 231 (designed binder)
chain: B11 chain with A48H, Y50F, V86I, H88N, F89S
B29: CD71-binding FN3 domain of SEQ ID NO: 114 (designed binder)
chain: MLPAPKNLVVSRVTEDSARLSWTAPDAAFDSFHIVYHEPRPSGEAIWLFVPGSERSYDLTGLKPGTEYEVGIVSVKGGDLSVPLSAIFTT
notes: Screen 1 hit, tested from colonies in the primary ELISA; not shown: C-terminal poly-histidine tag added to each FN3 domain
B30: CD71-binding FN3 domain of SEQ ID NO: 227 (designed binder)
chain: MSLPAPKNLVVSRVTEDSARLSWTAPDAAFDSFEIAYAELSTGEAIVLTVPGSERSYDLTGLKPGTEYYVHIGGVKGGSWSIPLSAIFTT
B31: CD71-binding FN3 domain of SEQ ID NO: 229 (designed binder)
chain: MSLPAPKNLVVSRVTEDSARLSWTAPDAAFDSFSIMYAEQKVNGEAIVLTVPGSERSYDLTGLKPGTEYLVLIWGVKGGGRSLPLSAIFTT

Legend:
[1] = target: T1, apical domain of cynomolgus CD71 (cynomolgus, UniProt A0A2K5X958 189-383); experiment: primary ELISA, luminescence
T1 construct: domain: apical domain; also called Cyno apical domain
T1 sequence (A0A2K5X958 entry or part of it): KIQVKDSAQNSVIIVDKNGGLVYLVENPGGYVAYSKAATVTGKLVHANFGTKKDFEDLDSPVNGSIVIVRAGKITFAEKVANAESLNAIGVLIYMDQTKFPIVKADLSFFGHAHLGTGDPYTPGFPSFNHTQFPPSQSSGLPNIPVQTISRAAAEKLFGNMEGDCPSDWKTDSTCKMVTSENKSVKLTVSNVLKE

[2] = target: T2, human CD71 extracellular domain (human, UniProt P02786 89-760); experiment: primary ELISA, luminescence
T2 construct: also called hCD71; human CD71-ECD

[3] = target: T1, apical domain of cynomolgus CD71; experiment: primary ELISA, ratio of signal to HSA control
[4] = target: T2, human CD71 extracellular domain; experiment: primary ELISA, ratio of signal to HSA control
[5] = target: human CD71 on cells (SKBR3; SW620-rLuc-KRAS) (human, UniProt P02786 1-760); experiment: cell-based or functional assay
Chain of human CD71 on cells (SKBR3; SW620-rLuc-KRAS) (P02786 whole entry, the tested form may be a part): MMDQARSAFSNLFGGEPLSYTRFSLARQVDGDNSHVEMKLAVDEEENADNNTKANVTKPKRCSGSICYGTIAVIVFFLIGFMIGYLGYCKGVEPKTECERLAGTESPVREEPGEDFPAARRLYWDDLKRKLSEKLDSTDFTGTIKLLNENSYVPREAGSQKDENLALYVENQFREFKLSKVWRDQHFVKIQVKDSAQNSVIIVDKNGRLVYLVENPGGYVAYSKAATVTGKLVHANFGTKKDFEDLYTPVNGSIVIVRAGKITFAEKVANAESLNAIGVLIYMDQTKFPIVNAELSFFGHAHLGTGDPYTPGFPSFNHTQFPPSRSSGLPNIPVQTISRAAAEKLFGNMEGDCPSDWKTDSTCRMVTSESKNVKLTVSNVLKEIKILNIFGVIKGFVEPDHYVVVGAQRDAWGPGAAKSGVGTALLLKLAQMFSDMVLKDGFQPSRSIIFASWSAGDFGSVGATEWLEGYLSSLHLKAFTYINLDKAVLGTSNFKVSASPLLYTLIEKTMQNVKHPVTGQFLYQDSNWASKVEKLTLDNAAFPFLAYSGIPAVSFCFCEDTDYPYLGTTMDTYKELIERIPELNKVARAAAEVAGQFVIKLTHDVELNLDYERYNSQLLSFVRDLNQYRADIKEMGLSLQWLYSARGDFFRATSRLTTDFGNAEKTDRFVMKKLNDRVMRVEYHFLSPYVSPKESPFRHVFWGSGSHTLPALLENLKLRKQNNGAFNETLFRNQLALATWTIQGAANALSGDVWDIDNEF

[6] = target: T3, human CD71 extracellular domain (human, UniProt P02786 89-760); experiment: primary ELISA; signal on hCD71 over signal on HSA
T3 construct: also called hCD71; human CD71-ECD

[7] = target: T4, apical domain of human CD71 (human, UniProt P02786 189-383, limits assumed); experiment: primary ELISA; signal on apical domain over signal on HSA
T4 construct: domain: apical domain; the panning antigen was 30% biotinylated; also called human apical domain of CD71
T4 sequence (P02786 189-383 limits assumed): as the sequence (A0A2K5X958 entry or part of it) above, with G20R, D59Y, S60T, K104N, D106E, Q137R, K176R, N182S, S184N counted along it

[8] = target: T4, apical domain of human CD71; experiment: primary ELISA of colonies, luminescence
[9] = target: T3, human CD71 extracellular domain; experiment: primary ELISA of colonies, luminescence

Binder | RLU [1] [RLU] | RLU [2] [RLU] | Cyno apical domain:HSA [3] | hCD71:HSA [4] | LSA EC50 (luciferase reporter assay, SW620-rLuc-KRAS cells, 72 h) [5] [nM] | further results
B1 | 4.22e+06 | 2.43e+06 | 331 | 191 | – | –
B2 | 4.86e+06 | 2.66e+06 | 242 | 133 | – | –
B3 | 4.33e+06 | 3.1e+06 | 28 | 20 | – | –
B4 | 4.78e+06 | 2.69e+06 | 359 | 202 | – | –
B5 | 4.69e+06 | 2.43e+06 | 751 | 388 | – | –
B6 | 4.11e+06 | 2.25e+06 | 47 | 26 | – | –
B7 | 5.41e+06 | 3.58e+06 | 295 | 195 | – | –
B8 | 4.79e+06 | 3.1e+06 | 115 | 74 | – | –
B9 | 4.73e+06 | 2.54e+06 | 282 | 151 | – | –
B10 | 4.58e+06 | 3.01e+06 | 101 | 66 | – | –
B11 | – | – | – | – | 0.63 | –
B12 | – | – | – | – | 0.45 | –
B13 | – | – | – | – | 0.53 | –
B14 | – | – | – | – | 0.75 | –
B15 | – | – | – | – | 0.47 | –
B16 | – | – | – | – | 2.1 | –

Binder | RLU [1] [RLU] | RLU [2] [RLU] | Cyno apical domain:HSA [3] | hCD71:HSA [4] | LSA EC50 (luciferase reporter assay, SW620-rLuc-KRAS cells, 72 h) [5] [nM] | further results
B17 | – | – | – | – | 0.64 | –
B18 | – | – | – | – | 0.58 | –
B19 | 6.01e+06 | 5.78e+06 | 223 | 215 | – | –
B20 | – | – | – | – | 0.57 | –
B21 | – | – | – | – | 0.47 | –
B22 | – | – | – | – | 0.67 | –
B23 | – | – | – | – | 0.49 | –
B24 | – | – | – | – | 0.54 | –
B25 | – | – | – | – | 0.48 | –
B26 | – | – | – | – | 0.39 | –
B27 | 6.08e+06 | 5.75e+06 | 186 | 176 | – | –
B28 | 5.52e+06 | 4.93e+06 | 63 | 56 | – | –
B29 | – | – | – | – | – | hCD71:HSA [6]: 130 ratio; Apical domain:HSA [7]: 311 ratio; Apical domain, RLU [8]: 3.59e+06 RLU; hCD71, RLU [9]: 1.5e+06 RLU
B30 | 4.23e+06 | 2.62e+06 | 49 | 30 | – | –
B31 | 4.52e+06 | 3.42e+06 | 119 | 90 | – | –
